Here are results for one molecule from PMC9174126.

For this assay, the target named is collagen I coupled to the Biacore CM5 chip (UniProt P02452). The assay can be described thus: SPR; Biacore; SPARC-WT and SPARC-Fut8KO on collagen I; responses compared at 300 s; sensorgrams shown in Fig. 2C of Ref. [20]. For orientation: In SPR one partner is held on a chip, and binding of the other changes the refractive index at the surface.
Sequence of UniProt P02452 (P02452 23-1218, chain 1 of 2): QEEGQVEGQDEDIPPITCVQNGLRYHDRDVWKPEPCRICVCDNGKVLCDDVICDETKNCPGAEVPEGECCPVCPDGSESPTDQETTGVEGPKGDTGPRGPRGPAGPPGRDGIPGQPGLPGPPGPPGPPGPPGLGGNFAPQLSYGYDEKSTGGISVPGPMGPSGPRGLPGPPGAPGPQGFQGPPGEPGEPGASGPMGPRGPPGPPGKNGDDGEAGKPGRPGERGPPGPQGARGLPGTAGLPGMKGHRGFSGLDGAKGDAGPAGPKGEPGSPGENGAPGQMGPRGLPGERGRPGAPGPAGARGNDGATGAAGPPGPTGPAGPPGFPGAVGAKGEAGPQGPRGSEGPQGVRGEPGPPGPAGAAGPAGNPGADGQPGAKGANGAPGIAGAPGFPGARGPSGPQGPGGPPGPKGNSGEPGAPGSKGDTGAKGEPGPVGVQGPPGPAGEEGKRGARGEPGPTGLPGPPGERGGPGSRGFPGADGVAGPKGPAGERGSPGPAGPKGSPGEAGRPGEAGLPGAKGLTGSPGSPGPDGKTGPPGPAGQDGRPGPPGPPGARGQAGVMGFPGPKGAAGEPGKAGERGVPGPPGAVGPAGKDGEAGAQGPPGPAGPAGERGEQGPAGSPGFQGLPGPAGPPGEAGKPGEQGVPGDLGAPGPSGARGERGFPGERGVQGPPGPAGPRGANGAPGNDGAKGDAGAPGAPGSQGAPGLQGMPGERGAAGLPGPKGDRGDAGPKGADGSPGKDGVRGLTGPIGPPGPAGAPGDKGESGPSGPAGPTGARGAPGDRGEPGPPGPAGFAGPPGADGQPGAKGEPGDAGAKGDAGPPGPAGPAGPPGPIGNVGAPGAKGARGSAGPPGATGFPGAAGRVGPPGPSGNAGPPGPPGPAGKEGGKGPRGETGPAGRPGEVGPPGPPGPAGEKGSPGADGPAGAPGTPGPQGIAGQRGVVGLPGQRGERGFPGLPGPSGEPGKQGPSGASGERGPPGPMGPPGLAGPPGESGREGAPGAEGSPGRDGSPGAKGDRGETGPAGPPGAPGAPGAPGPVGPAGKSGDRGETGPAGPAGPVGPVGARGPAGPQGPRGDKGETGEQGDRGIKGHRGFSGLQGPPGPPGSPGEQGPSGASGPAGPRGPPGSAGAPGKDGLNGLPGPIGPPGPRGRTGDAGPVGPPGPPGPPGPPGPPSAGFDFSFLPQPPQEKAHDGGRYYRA
Sequence of UniProt P02452 (P08123 80-1119, chain 2 of 2, further chain): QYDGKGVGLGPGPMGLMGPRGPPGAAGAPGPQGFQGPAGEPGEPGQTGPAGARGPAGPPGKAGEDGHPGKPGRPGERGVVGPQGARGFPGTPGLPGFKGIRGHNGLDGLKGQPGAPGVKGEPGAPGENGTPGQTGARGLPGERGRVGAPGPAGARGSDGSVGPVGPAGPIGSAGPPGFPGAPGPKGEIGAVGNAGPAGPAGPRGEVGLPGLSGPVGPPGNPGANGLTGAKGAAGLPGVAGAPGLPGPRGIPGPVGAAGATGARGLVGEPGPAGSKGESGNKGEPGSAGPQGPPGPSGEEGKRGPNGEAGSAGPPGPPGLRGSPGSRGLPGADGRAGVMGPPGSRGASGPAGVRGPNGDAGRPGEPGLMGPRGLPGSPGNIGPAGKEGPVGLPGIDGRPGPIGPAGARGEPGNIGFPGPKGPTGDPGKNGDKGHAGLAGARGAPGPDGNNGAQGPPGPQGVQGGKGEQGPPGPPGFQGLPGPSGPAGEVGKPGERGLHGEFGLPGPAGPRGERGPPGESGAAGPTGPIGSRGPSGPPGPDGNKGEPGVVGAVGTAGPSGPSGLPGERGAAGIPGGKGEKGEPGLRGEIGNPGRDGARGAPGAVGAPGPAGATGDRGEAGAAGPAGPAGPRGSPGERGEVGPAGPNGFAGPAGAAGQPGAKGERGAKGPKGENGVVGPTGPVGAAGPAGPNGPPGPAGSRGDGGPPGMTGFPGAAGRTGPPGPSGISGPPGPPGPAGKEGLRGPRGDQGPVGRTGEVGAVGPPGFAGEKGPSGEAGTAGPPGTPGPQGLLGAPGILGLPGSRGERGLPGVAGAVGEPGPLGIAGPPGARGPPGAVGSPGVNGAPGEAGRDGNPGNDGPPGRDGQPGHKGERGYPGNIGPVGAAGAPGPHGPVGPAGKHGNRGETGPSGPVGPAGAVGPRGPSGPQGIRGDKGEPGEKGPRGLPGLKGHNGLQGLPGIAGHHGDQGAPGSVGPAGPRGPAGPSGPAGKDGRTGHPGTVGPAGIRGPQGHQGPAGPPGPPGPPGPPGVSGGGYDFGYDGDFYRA

B1: recombinant His-tagged human SPARC from FUT8-knockout HEK-293T cells (SPARC-Fut8KO), not core-fucosylated (natural protein)
chain: APQQEALPDETEVVEETVAEVTEVSVGANPVQVEVGEFDDGAEETEEEVVAENPCQNHHCKHGKVCELDENNTPMCVCQDPTSCPAPIGEFEKVCSNDNKTFDSSCHFFATKCTLEGTKKGHKLHLDYIGPCKYIPPCLDSELTEFPLRMRDWLKNVLVTLYERDEDNNLLTEKQKLRVKKIHENEKRLEAGDHPVELLARDFEKNYNMYIFPVHWQFGQLDQHPIDGYLSHTELAPLRAPLIPMEHCTTRFFETCDLDNDKYIALDEWAGCFGIKQKDIDKDLVI
modifications: not core-fucosylated at N116
B1: the binding response (RU) relative to SPARC-WT at 300 s was 40%.
